Data from article doi:10.1101/2020.12.04.411645.

Molecular target: MBP-tagged full-length CYRI-A (mouse) (UniProt Q8BHZ0)
Assay: SPR

Chain of MBP-tagged full-length CYRI-A (mouse) (Q8BHZ0 whole entry): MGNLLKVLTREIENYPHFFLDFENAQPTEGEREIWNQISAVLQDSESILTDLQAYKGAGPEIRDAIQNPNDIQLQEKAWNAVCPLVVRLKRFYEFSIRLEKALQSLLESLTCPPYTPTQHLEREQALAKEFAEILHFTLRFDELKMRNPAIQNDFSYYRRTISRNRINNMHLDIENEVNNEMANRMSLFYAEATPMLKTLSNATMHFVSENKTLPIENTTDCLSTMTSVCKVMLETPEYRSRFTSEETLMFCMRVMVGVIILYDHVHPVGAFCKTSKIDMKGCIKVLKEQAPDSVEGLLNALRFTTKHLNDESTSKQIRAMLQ

Substance “untagged full-length RAC1 Q61L (from UniProt P63000 1-192) (enzyme; other documents disagree on this pair)” has a Kd of 2470 nM.
